From publication PMC2572732 (2008)
Non-standard residues stand in square brackets, D forms with d. No end group written: not given here. pY = N[C@@H](Cc1ccc(OP(=O)(O)O)cc1)C(=O)O

Experiments:
[1] = target: isolated Fes SH2 domain, E469K/E472K (mutant EE/KK) (human, UniProt P07332-1 460-549, E469K | E472K); assay: FP
[2] = target: isolated Fes SH2 domain, wild type (human, UniProt P07332-1 460-549); assay: FP
[3] = target: isolated Fes SH2 domain, G463V (mutant G/V) (human, UniProt P07332-1 460-549, G463V (mutant G/V)); assay: FP
Chain of isolated Fes SH2 domain, G463V (mutant G/V) (P07332 460-549 G463V): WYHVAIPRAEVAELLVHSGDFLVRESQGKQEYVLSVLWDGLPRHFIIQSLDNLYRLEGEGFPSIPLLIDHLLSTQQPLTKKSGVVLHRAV

[4] = target: human Fes SH2-kinase unit (residues I448 to the C terminus), unphosphorylated (human, UniProt P07332-1 448-822); assay: FP; 1 mM ATP and 5 mM MgCl2
Chain of human Fes SH2-kinase unit (residues I448 to the C terminus), unphosphorylated (P07332 448-822): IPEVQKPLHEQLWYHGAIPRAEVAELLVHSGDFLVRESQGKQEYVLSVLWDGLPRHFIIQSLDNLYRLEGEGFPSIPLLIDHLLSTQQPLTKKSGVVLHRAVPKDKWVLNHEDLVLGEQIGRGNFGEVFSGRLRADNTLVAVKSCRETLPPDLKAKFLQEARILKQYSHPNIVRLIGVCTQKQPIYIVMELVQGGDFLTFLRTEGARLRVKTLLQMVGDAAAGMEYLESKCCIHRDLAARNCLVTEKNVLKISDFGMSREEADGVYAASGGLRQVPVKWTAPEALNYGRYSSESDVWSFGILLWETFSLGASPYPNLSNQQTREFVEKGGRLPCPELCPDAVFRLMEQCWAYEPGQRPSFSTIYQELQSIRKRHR

Measured: Kd

Chain of isolated Fes SH2 domain, E469K/E472K (mutant EE/KK) (P07332 460-549 E469K/E472K): as the sequence (P07332 460-549 G463V) above, with V4G, E10K, E13K counted along it
Chain of isolated Fes SH2 domain, wild type (P07332 460-549): as the sequence (P07332 460-549 G463V) above, with V4G counted along it

V[pY]EPVSY [pTyr-containing peptide from ezrin (VpYEPVSY)]
~400 nM: [1] | [2] | [3] | [4]
